First the molecules themselves.
B1: Gamma-crystallin C, residues 4 to 79; numbered along this chain, P07315 (parent)
chain: ITFYEDRAFQGRSYETTTDCPNLQPYFSRCNSIRVESGCWMLYERPNYQGQQYLLRRGEYPDYQQWMGLSDSIRSC

± gives the uncertainty stated by the source.

Variants of B1 are the subject of the data set. The data set can be described thus: abundance fitness (aPCA) (normalised: wild type 0, dead -1); higher = more abundant; growth selection in yeast, the domain comes from the species named. The note with it: Homo sapiens.
Turning to ITFYEDRMFQGRSYETTTDCPNLQPYFSRCNSIRVESGCWMLYERPNYQGQQYLLRRGEYPDYQQWMGLSDSIRSC, the abundance fitness came to 0.013 ± 0.12.

ITFYEDRWFQGRSYETTTDCPNLQPYFSRCNSIRVESGCWMLYERPNYQGQQYLLRRGEYPDYQQWMGLSDSIRSC: the abundance fitness was -0.069 ± 0.051.

In the case of ITFYEDRIFQGRSYETTTDCPNLQPYFSRCNSIRVESGCWMLYERPNYQGQQYLLRRGEYPDYQQWMGLSDSIRSC, the abundance fitness stood at 0.001 ± 0.18.

Regarding ITFYEDRDFQGRSYETTTDCPNLQPYFSRCNSIRVESGCWMLYERPNYQGQQYLLRRGEYPDYQQWMGLSDSIRSC, the abundance fitness was -0.275 ± 0.24.

Regarding ITFYEDRRFQGRSYETTTDCPNLQPYFSRCNSIRVESGCWMLYERPNYQGQQYLLRRGEYPDYQQWMGLSDSIRSC, the abundance fitness was -0.005 ± 0.061.

On to ITFYEDRFFQGRSYETTTDCPNLQPYFSRCNSIRVESGCWMLYERPNYQGQQYLLRRGEYPDYQQWMGLSDSIRSC, for which the abundance fitness is -0.06 ± 0.13.

As to ITFYEDRNFQGRSYETTTDCPNLQPYFSRCNSIRVESGCWMLYERPNYQGQQYLLRRGEYPDYQQWMGLSDSIRSC, the abundance fitness was determined as 0.181 ± 0.34.

ITFYEDRSFQGRSYETTTDCPNLQPYFSRCNSIRVESGCWMLYERPNYQGQQYLLRRGEYPDYQQWMGLSDSIRSC: the abundance fitness was -0.016 ± 0.14.

On to ITFYEDRTFQGRSYETTTDCPNLQPYFSRCNSIRVESGCWMLYERPNYQGQQYLLRRGEYPDYQQWMGLSDSIRSC, for which the abundance fitness is -0.016 ± 0.14.

For the variant ITFYEDREFQGRSYETTTDCPNLQPYFSRCNSIRVESGCWMLYERPNYQGQQYLLRRGEYPDYQQWMGLSDSIRSC, the abundance fitness is 0.103 ± 0.11.

For the variant ITFYEDRQFQGRSYETTTDCPNLQPYFSRCNSIRVESGCWMLYERPNYQGQQYLLRRGEYPDYQQWMGLSDSIRSC, the abundance fitness amounted to 0.007 ± 0.11.

With ITFYEDRYFQGRSYETTTDCPNLQPYFSRCNSIRVESGCWMLYERPNYQGQQYLLRRGEYPDYQQWMGLSDSIRSC, the abundance fitness was -0.101 ± 0.42.

Take ITFYEDRHFQGRSYETTTDCPNLQPYFSRCNSIRVESGCWMLYERPNYQGQQYLLRRGEYPDYQQWMGLSDSIRSC: the abundance fitness was found to be 0.016 ± 0.2.

In the case of ITFYEDRPFQGRSYETTTDCPNLQPYFSRCNSIRVESGCWMLYERPNYQGQQYLLRRGEYPDYQQWMGLSDSIRSC, the abundance fitness is -0.312 ± 0.16.

Turning to ITFYEDRGFQGRSYETTTDCPNLQPYFSRCNSIRVESGCWMLYERPNYQGQQYLLRRGEYPDYQQWMGLSDSIRSC, the abundance fitness was determined as 0.053 ± 0.1.

Turning to ITFYEDRVFQGRSYETTTDCPNLQPYFSRCNSIRVESGCWMLYERPNYQGQQYLLRRGEYPDYQQWMGLSDSIRSC, the abundance fitness is -0.064 ± 0.069.

Turning to ITFYEDRCFQGRSYETTTDCPNLQPYFSRCNSIRVESGCWMLYERPNYQGQQYLLRRGEYPDYQQWMGLSDSIRSC, the abundance fitness is 0.072 ± 0.092.

On to ITFYEDLAFQGRSYETTTDCPNLQPYFSRCNSIRVESGCWMLYERPNYQGQQYLLRRGEYPDYQQWMGLSDSIRSC, for which the abundance fitness was -0.029 ± 0.12.

As to ITFYEDAAFQGRSYETTTDCPNLQPYFSRCNSIRVESGCWMLYERPNYQGQQYLLRRGEYPDYQQWMGLSDSIRSC, the abundance fitness is -0.031 ± 0.089.

For ITFYEDPAFQGRSYETTTDCPNLQPYFSRCNSIRVESGCWMLYERPNYQGQQYLLRRGEYPDYQQWMGLSDSIRSC, the abundance fitness was 0.219 ± 0.3.

For the variant ITFYEDYAFQGRSYETTTDCPNLQPYFSRCNSIRVESGCWMLYERPNYQGQQYLLRRGEYPDYQQWMGLSDSIRSC, the abundance fitness is -0.266 ± 0.24.

With ITFYEDTAFQGRSYETTTDCPNLQPYFSRCNSIRVESGCWMLYERPNYQGQQYLLRRGEYPDYQQWMGLSDSIRSC, the abundance fitness is -0.237 ± 0.19.

On to ITFYEDWAFQGRSYETTTDCPNLQPYFSRCNSIRVESGCWMLYERPNYQGQQYLLRRGEYPDYQQWMGLSDSIRSC, for which the abundance fitness was -0.086 ± 0.11.

ITFYEDNAFQGRSYETTTDCPNLQPYFSRCNSIRVESGCWMLYERPNYQGQQYLLRRGEYPDYQQWMGLSDSIRSC: the abundance fitness stood at 0.044 ± 0.12.

Turning to ITFYEDIAFQGRSYETTTDCPNLQPYFSRCNSIRVESGCWMLYERPNYQGQQYLLRRGEYPDYQQWMGLSDSIRSC, the abundance fitness was -0.141 ± 0.31.

ITFYEDMAFQGRSYETTTDCPNLQPYFSRCNSIRVESGCWMLYERPNYQGQQYLLRRGEYPDYQQWMGLSDSIRSC: the abundance fitness is -0.444 ± 0.21.

Turning to ITFYEDKAFQGRSYETTTDCPNLQPYFSRCNSIRVESGCWMLYERPNYQGQQYLLRRGEYPDYQQWMGLSDSIRSC, the abundance fitness was -0.141 ± 0.2.

Take ITFYEDDAFQGRSYETTTDCPNLQPYFSRCNSIRVESGCWMLYERPNYQGQQYLLRRGEYPDYQQWMGLSDSIRSC: the abundance fitness is -0.153 ± 0.32.

With ITFYEDSAFQGRSYETTTDCPNLQPYFSRCNSIRVESGCWMLYERPNYQGQQYLLRRGEYPDYQQWMGLSDSIRSC, the abundance fitness was -0.117 ± 0.11.

Turning to ITFYEDCAFQGRSYETTTDCPNLQPYFSRCNSIRVESGCWMLYERPNYQGQQYLLRRGEYPDYQQWMGLSDSIRSC, the abundance fitness is -0.002 ± 0.15.

In the case of ITFYEDQAFQGRSYETTTDCPNLQPYFSRCNSIRVESGCWMLYERPNYQGQQYLLRRGEYPDYQQWMGLSDSIRSC, the abundance fitness stood at 0.013 ± 0.073.

For the variant ITFYEDFAFQGRSYETTTDCPNLQPYFSRCNSIRVESGCWMLYERPNYQGQQYLLRRGEYPDYQQWMGLSDSIRSC, the abundance fitness was -0.082 ± 0.17.

In the case of ITFYEDVAFQGRSYETTTDCPNLQPYFSRCNSIRVESGCWMLYERPNYQGQQYLLRRGEYPDYQQWMGLSDSIRSC, the abundance fitness worked out at 0.045 ± 0.087.

As to ITFYEDGAFQGRSYETTTDCPNLQPYFSRCNSIRVESGCWMLYERPNYQGQQYLLRRGEYPDYQQWMGLSDSIRSC, the abundance fitness was -0.02 ± 0.064.

As for ITFYEDRACQGRSYETTTDCPNLQPYFSRCNSIRVESGCWMLYERPNYQGQQYLLRRGEYPDYQQWMGLSDSIRSC, the abundance fitness was determined as 0.12 ± 0.13.

In the case of ITFYEDRAAQGRSYETTTDCPNLQPYFSRCNSIRVESGCWMLYERPNYQGQQYLLRRGEYPDYQQWMGLSDSIRSC, the abundance fitness is -0.139 ± 0.15.

For the origin of these results see the Human Domainome abundance scans (Beltran et al. 2025).
